The results in this text go back to paper PMC6349121, “Structural insights into non-covalent ubiquitin activation of the cIAP1-UbcH5B∼ubiquitin complex” (The Journal of Biological Chemistry, 2018).

Series [1] concerns the target T1, UbcH5B S22R C85K covalently linked to Ub (UbcH5B_(S22R)–Ub) (human, UniProt P62837 1-147; P0CG47 1-76, S22R | C85K, Lys85 (C85K) in a stable amide linkage to Ub | covalently linked to Lys85 of UbcH5B S22R C85K (amide linkage)).
T1 construct: UbcH5B, human Ub-conjugating enzyme (E2); ubiquitin (Ub), human, donor Ub; source: E. coli BL21 (DE3) Gold
Description: SPR; as a1, but UbcH5B–Ub variants diluted in running buffer containing 0.6 mM UbΔGG; GST-cIAP1R coupled to a CM-5 chip, 25 °C; steady-state affinity analysis. The conditions noted are these: both partners purified.

The target in series [2] is T2, UbcH5B (human, UniProt P62837 1-147).
T2 construct: UbcH5B, human Ub-conjugating enzyme (E2), untagged; also called UbcH5B WT
Description: SPR; GST-cIAP1R coupled to a CM-5 chip, Biacore T200, 25 °C; analytes diluted in 25 mM Tris-HCl pH 7.6, 150 mM NaCl, 0.1 mg/ml BSA, 1 mM DTT, 0.005% Tween 20; GST alone subtracted; steady-state affinity analysis. The conditions noted are these: both partners purified.

In series [3] the target is T3, UbcH5B C85K covalently linked to Ub (UbcH5B–Ub) (human, UniProt P62837 1-147; P0CG47 1-76, C85K, Lys85 (C85K) in a stable amide linkage to Ub | covalently linked to Lys85 of UbcH5B C85K (amide linkage)).
T3 construct: UbcH5B, human Ub-conjugating enzyme (E2); ubiquitin (Ub), human, donor Ub (Ub^D); the model of 6HPR holds residues 1-76; source: E. coli BL21 (DE3) Gold
The description is as above. The conditions noted are these: both partners purified.

The target in series [4] is T1, UbcH5B S22R C85K covalently linked to …. The series is described as above. Particulars: both partners purified.
Series [5] has as its target T4, ubiquitin (Ub) (human, UniProt P0CG47 1-76).
T4 construct: ubiquitin (Ub), human; in the model of 6HPR Ub^B is chain B (residues 1-74 seen) and Ub^D chain D (residues 1-76); Free Ub was mixed into the crystallised complex as Ub^B; in the rows on Ub^D it stands for the Ub part of the conjugate m4; also called WT Ub
Description: crystal structure; cIAP1R, UbcH5B–Ub and Ub mixed at 1:1:1.2 molar ratio; sitting drop, 0.2 M ammonium fluoride, 15% PEG 3350, 19 °C; 1.7 Å; dimer generated by crystallographic symmetry. The conditions noted are these: both partners purified.

Series [6] deals with the molecule itself. Described as above.

B1: GST-cIAP1R (cIAP1 RING domain, residues 556-C, with GST) (domain or fragment, human, UniProt Q13490 556-618, looked up)
chain: LSLEEQLRRLQEERTCKVCMDKEVSVVFIPCGHLVVCQECAPSLRKCPICRGIIKGTVRTFLS
notes: pGEX4T1 with a TEV site after GST; the tag is not cleaved in this form; source: E. coli BL21 (DE3) Gold; not shown: GST, N-terminal, kept
Regarding B1, the Kd stood at 990 ± 50 nM in series [1], 223000 ± 4000 nM in series [2], 830 ± 50 nM in series [3] and 900 ± 10 nM in series [4].

B2: cIAP1 RING domain (residues 556-C; cIAP1R) (domain or fragment, human, UniProt Q13490 556-618, looked up)
chain: LSLEEQLRRLQEERTCKVCMDKEVSVVFIPCGHLVVCQECAPSLRKCPICRGIIKGTVRTFLS
notes: Homodimer through the RING domain; in the crystal the dimer is generated by crystallographic symmetry; also called cIAP1 RING dimer; not shown: GST, N-terminal, cleaved
As to B2, the binding result in series [5] and in series [6] was “binds” each time.
